{
  "source": "paper PMC3986616",
  "about": "“Identification and functional characterization of a flax UDP-glycosyltransferase glucosylating secoisolariciresinol (SECO) into secoisolariciresinol monoglucoside (SMG) and diglucoside (SDG)” (BMC Plant Biology, 2014)",
  "proteins": {"B1": {"name": "UGT74S1 (Linum usitatissimum) (protein)", "chain": "MAGDEREKAHCLVVPAAAQGHFTPLLQFSKRLIPKRIRVTLALTRFIHSTMTVTAQSGIHIDTISDGFDHSGLILQDPEHYSQTFRRVGSETLTDLIRKQSESRHPVHCIIYDASMPWFLDVAKRFGIVGAAFLTQSCAVNAIYYHLREGTIKRPVVSDPAAGTLVIDGLPPLEVSDLPSFIWDDLHTEFLAAHLRQFSNDGADWVFCNTVYQLELEAVDWLTKQWLINFRTIGPTIPSFYLDKQIPDDKDYDISIFNPQNQTCMNWLQSKPDGSVVYVSFGSLARLSPQQTEELYFGLKNSNHYFLWVVRESEVAKLPKEEYLSGEKGLVVSWCSQLQVLASGKVGCFVTHCGWNSTLEALSLGVPMVAMPECGDQLTNAKFIKDVWKTGVRAEADDGKGIMWGMIKREVIERCIREVMEGEETRRNADKWGKIIKEAVVEGGSSDKNTEDFATSLINFAETFQFSC"}},
  "key": {"[1]": {"substrate": "O=c1ccn([C@@H]2O[C@H](CO[P@@](=O)(O)O[P@@](=O)(O)O[C@H]3O[C@H](CO)[C@@H](O)[C@H](O)[C@H]3O)[C@@H](O)[C@H]2O)c(=O)[nH]1", "experiment": "UPLC-MS glucosylation assay, SDG formation, Lineweaver-Burk", "assay_type": "biochemical, Linum usitatissimum", "conditions": "SDG production, 280 μM SECO fixed, pH 8.0, 30°C, 1 mM NaCl, 80 μg protein"}, "[2]": {"substrate": "COc1cc(C[C@@H](CO)[C@H](CO)Cc2ccc(O)c(OC)c2)ccc1O", "experiment": "UPLC-MS glucosylation assay, SDG formation, Lineweaver-Burk", "assay_type": "biochemical, Linum usitatissimum", "conditions": "SDG production (sequential glucosylation via SMG), 1.67 mM UDP-glucose fixed, pH 8.0, 30°C, 1 mM NaCl, 80 μg protein"}},
  "data": [
    {"protein": "B1", "values": [
      {"measurement": "Km", "setting": "[1]", "result": 1188, "unit": "µM"},
      {"measurement": "Km", "setting": "[2]", "result": 79, "unit": "µM"},
      {"measurement": "kcat", "setting": "[2]", "result": 0.89, "unit": "s⁻¹"}
    ]}
  ]
}
